The values that follow come from US20240277831A1 (University of Washington, published 2024).

The target in assay [1] is RBD-8GS-I53-50A trimeric component (SARS-CoV-2).
In assay [2] the target is RBD-12GS-I53-50A trimeric component (SARS-CoV-2).
A further assay addresses Monomeric SARS-CoV-2 RBD (SARS-CoV-2, UniProt P0DTC2 328-531).

B1: monomeric human ACE2 (hACE2) ectodomain (receptor)
chain: STIEEQAKTFLDKFNHEAEDLFYQSSLASWNYNTNITEENVQNMNNAGDKWSAFLKEQSTLAQMYPLQEIQNLTVKLQLQALQQNGSSVLSEDKSKRLNTILNTMSTIYSTGKVCNPDNPQECLLLEPGLNEIMANSLDYNERLWAWESWRSEVGKQLRPLYEEYVVLKNEMARANHYEDYGDYWRGDYEVNGVDGYDYSRGQLIEDVEHTFEEIKPLYEHLHAYVRAKLMNAYPSYISPIGCLPAHLLGDMWGRFWTNLYSLTVPFGQKPNIDVTDAMVDQAWDAQRIFKEAEKFFVSVGLPNMTQGFWENSMLTDPGNVQKAVCHPTAWDLGKGDFRILMCTKVTMDDFLTAHHEMGHIQYDMAYAAQPFLLRNGANEGFHEAVGEIMSLSAATPKHLKSIGLLSPDFQEDNETEINFLLKQALTIVGTLPFTYMLEKWRWMVFKGEIPKDQWMKKWWEMKREIVGVVEPVPHDETYCDPASLFHVSNDYSFIRYYTGTLYQFQFQEALCQAAKHEGPLHKCDISNSTEAGQKLFNMLRLGKSEPWTLALENVVGAKNMNVRPLLNYFEPLFTWLKDQNKNSFVGWSTDWSPYADPLVPR
In assay [1], B1 displayed a Kd of 70 nM, a dissociation rate constant (koff) of 0.004 s⁻¹ and a kon of 60000 M⁻¹ s⁻¹. In assay [2], the affinity, expressed as Kd, was 78 nM; the off-rate (koff) worked out at 0.005 s⁻¹; the kon was found to be 60000 M⁻¹ s⁻¹. Moreover, in the assay with Monomeric SARS-CoV-2 RBD, the equilibrium dissociation constant (Kd) amounted to 69 nM, the koff stood at 0.005 s⁻¹ and the kon worked out at 70000 M⁻¹ s⁻¹.
